± gives the standard deviation of the averaged measurements.

This is an account of results in the supplement of paper PMC10126150.
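Further: ATP exposure 15 min at 22 °C before imaging.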

This data set relates to ATP. In words: switch fluorescence ratio, 500 uM ATP over buffer (Cy3 cluster intensity, sum of 5 cycles each) (fold (ratio)); higher = stronger signal-on switching upon ATP binding; sequences stand for … in TCGTCGGCAGCGTCAGATGTGTATAAGAGACAGTTTTTTTTTTTTTTTTTTTTTTTTT…TC. As to conditions: aptamer strand: ATP DNA aptamer (quencher-CACCTGGGGGAGTATTGCGGAGGAAGG + anchor), 100 nM annealed; ATP concentration: 500 uM. The method in brief: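 Clusters with intensities outside 100-1000 RFU were excluded. The remaining Cy3-labelled switching-strand clusters on a modified Illumina MiSeq flow-cell had been annealed to 100 nM quencher-labelled ATP aptamer and imaged in selection buffer, then after 15 min with 500 uM ATP at 22 °C, for five cycles separated by NaOH stripping and re-annealing. The fluorescence ratio, averaged per switch-domain sequence, is each cluster's summed target-cycle Cy3 intensity over its summed buffer-cycle Cy3 intensity.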
Consider GATAAAGTAA, for which the switch fluorescence ratio amounted to 0.983 ± 0.015.

Take TTATCGTGC: the switch fluorescence ratio was determined as 0.9864 ± 0.0071.

For GTTTTAGGGG, the switch fluorescence ratio was found to be 1.01 ± 0.052.

Regarding GCTATCGAGT, the switch fluorescence ratio amounted to 1.01 ± 0.018.

ACTTACAGGG: the switch fluorescence ratio turned out to be 1.171 ± 0.0058.

Consider TAATTGAGAA, for which the switch fluorescence ratio came to 0.986 ± 0.037.

As for CATCCACGTA, the switch fluorescence ratio is 1.2 ± 0.083.

GTTCGGGGCT: the switch fluorescence ratio worked out at 0.999 ± 0.029.

For the sequence TGGGTATTAT, the switch fluorescence ratio stood at 0.9997 ± 0.0052.

As to GGTTTGTGTT, the switch fluorescence ratio is 0.974 ± 0.017.

Regarding TATATTTAAG, the switch fluorescence ratio came to 1.01 ± 0.03.

Consider TTTCTCTGGT, for which the switch fluorescence ratio is 0.993 ± 0.045.

Consider CGCTGGACGG, for which the switch fluorescence ratio was 1.023 ± 0.0098.

For the sequence GTGGGTTGTG, the switch fluorescence ratio worked out at 0.978 ± 0.04.

Take GGGGGCACAG: the switch fluorescence ratio came out at 0.992 ± 0.012.

Take CGGTATTGGT: the switch fluorescence ratio stood at 0.976 ± 0.031.

Take GGATTACGTA: the switch fluorescence ratio is 1.04 ± 0.059.

Take TACACTTTGC: the switch fluorescence ratio amounted to 1.027 ± 0.0079.

GTATAGGGTT: the switch fluorescence ratio was found to be 0.9931 ± 0.007.

For CATTTAGGTA, the switch fluorescence ratio was 1.001 ± 0.0078.

For the sequence ATCATGTGCG, the switch fluorescence ratio stood at 1.01 ± 0.033.

As for CGTCCGGCAG, the switch fluorescence ratio stood at 1.67 ± 0.083.

In the case of AAACACGGTG, the switch fluorescence ratio is 1.19 ± 0.17.

On to ATCAGCGACT, for which the switch fluorescence ratio was found to be 0.993 ± 0.043.

On to GAGTGTTCTT, for which the switch fluorescence ratio worked out at 0.977 ± 0.01.

As for AAGGTCGTCA, the switch fluorescence ratio amounted to 0.9613 ± 0.0023.

In the case of TACTACTTGC, the switch fluorescence ratio is 1.05 ± 0.0085.

For the sequence AATAAATGTA, the switch fluorescence ratio was found to be 1.04 ± 0.048.

In the case of GGGTCACGTT, the switch fluorescence ratio stood at 0.997 ± 0.032.

In the case of AGAAAAAATT, the switch fluorescence ratio is 1 ± 0.017.

CGGTTTCTTT: the switch fluorescence ratio amounted to 0.967 ± 0.053.

Take CCGCTTGGTT: the switch fluorescence ratio stood at 1.23 ± 0.028.

TAGAGTTTTA: the switch fluorescence ratio was found to be 0.972 ± 0.022.

As to ATAGCATACG, the switch fluorescence ratio amounted to 1.28 ± 0.047.

Consider CGCGTGTCTG, for which the switch fluorescence ratio amounted to 1.022 ± 0.0039.

For the sequence AAGGTGTAGC, the switch fluorescence ratio turned out to be 0.9839 ± 0.0091.

Turning to ATGTGCTTC, the switch fluorescence ratio stood at 1.005 ± 0.0078.

In the case of TCGTAGGATG, the switch fluorescence ratio worked out at 0.975 ± 0.037.

For CGACGATTTG, the switch fluorescence ratio was determined as 1.01 ± 0.026.

On to CGCGTCGCTG, for which the switch fluorescence ratio stood at 0.9811 ± 0.0012.

As to TCTGTATCCG, the switch fluorescence ratio amounted to 0.984 ± 0.015.

Regarding CTCCAGGGGA, the switch fluorescence ratio was found to be 1.5 ± 0.49.

Take GAAAGGTAAG: the switch fluorescence ratio was found to be 0.9934 ± 0.0036.

As for GCATTAAAGG, the switch fluorescence ratio came to 0.981 ± 0.04.

Regarding TGCTTAAGCA, the switch fluorescence ratio stood at 0.982 ± 0.058.

For the sequence TCTTGACTAG, the switch fluorescence ratio was determined as 1.06 ± 0.053.

With CGGTTAGACT, the switch fluorescence ratio came out at 0.975 ± 0.05.

Take GGTTTAATGG: the switch fluorescence ratio was determined as 1.01 ± 0.018.

As for GCCACGTCAA, the switch fluorescence ratio turned out to be 1.06 ± 0.067.

Consider GGCTATATTT, for which the switch fluorescence ratio was 0.991 ± 0.017.

For the sequence GGCGTCGAGG, the switch fluorescence ratio worked out at 0.997 ± 0.018.

For the sequence CTGATGGCGT, the switch fluorescence ratio is 1 ± 0.0068.

Turning to TTGCTATGTT, the switch fluorescence ratio was 1.01 ± 0.037.

For the sequence TTCGGTTTTC, the switch fluorescence ratio amounted to 0.984 ± 0.033.

Regarding GGTTTAATTA, the switch fluorescence ratio stood at 0.972 ± 0.03.

For the sequence GGGCGTTATG, the switch fluorescence ratio turned out to be 1.0238 ± 0.00033.

As to GGGGTTAAAA, the switch fluorescence ratio is 0.973 ± 0.024.

On to TTGACTGGAG, for which the switch fluorescence ratio worked out at 1 ± 0.011.

For CTTAGTTTCG, the switch fluorescence ratio worked out at 1.035 ± 0.0071.

As for ATTTATGGGG, the switch fluorescence ratio was found to be 1 ± 0.032.

For the sequence AAGGGGGGTC, the switch fluorescence ratio came to 0.991 ± 0.042.

Take TTCAGTGTCG: the switch fluorescence ratio amounted to 1.01 ± 0.073.

With CTCATCGGGC, the switch fluorescence ratio was 1.06 ± 0.032.

With ATGTAGCATG, the switch fluorescence ratio came to 1.036 ± 0.0041.

Regarding GAGGCGTACG, the switch fluorescence ratio is 1.04 ± 0.021.

Turning to TAACACGTCG, the switch fluorescence ratio was 0.9947 ± 0.0081.

For the sequence GGGTCAATAG, the switch fluorescence ratio stood at 1.42 ± 0.051.

As to CATGTCTGTA, the switch fluorescence ratio is 1.

As to GATGGCTGCG, the switch fluorescence ratio is 1.04 ± 0.039.

On to CATACGAAGT, for which the switch fluorescence ratio was 1.02 ± 0.068.

With ACGATAGGGC, the switch fluorescence ratio came to 1.06 ± 0.046.

Turning to GGTAGGTCGT, the switch fluorescence ratio turned out to be 1.02 ± 0.074.

With AGCTGGTGGA, the switch fluorescence ratio worked out at 1.02 ± 0.024.

Regarding AGGTCCGCGA, the switch fluorescence ratio turned out to be 2.62 ± 0.17.

Turning to TTTTGGGTGT, the switch fluorescence ratio was 1.02 ± 0.059.

As for CAAATGGTTC, the switch fluorescence ratio was 0.9582 ± 0.0043.

On to TACTGCGGTC, for which the switch fluorescence ratio worked out at 0.998 ± 0.012.

With TAAAGCTTCG, the switch fluorescence ratio came to 1.27 ± 0.041.

As for TTGAGACTAG, the switch fluorescence ratio was found to be 1 ± 0.015.

On to AAAGATAGAT, for which the switch fluorescence ratio came to 1.002 ± 0.0027.

On to CCATAGCTCA, for which the switch fluorescence ratio was determined as 2.016 ± 0.016.

With CGGATAGAGG, the switch fluorescence ratio amounted to 0.964 ± 0.012.

For AGCAGTTTAC, the switch fluorescence ratio came out at 1.17 ± 0.054.

Turning to TTATATATGC, the switch fluorescence ratio is 0.986 ± 0.028.

Turning to AAGGGTTTAC, the switch fluorescence ratio came out at 0.995 ± 0.035.

Regarding CCGCGGGGTT, the switch fluorescence ratio turned out to be 1.2 ± 0.084.

TCGTAAAGGA: the switch fluorescence ratio is 1.03 ± 0.043.

Regarding TAACGCATCT, the switch fluorescence ratio came to 1.149 ± 0.0052.

As to GTTTGTCAGG, the switch fluorescence ratio is 0.99 ± 0.04.

Take CCAAACGATT: the switch fluorescence ratio was 1.02 ± 0.027.

Regarding GCAAATGGGG, the switch fluorescence ratio worked out at 1.02 ± 0.033.

As for GGTAGTAGTG, the switch fluorescence ratio is 1.0054 ± 0.00082.

As for GGGAAATTGC, the switch fluorescence ratio stood at 1.04 ± 0.074.

For the sequence TACAATTTTT, the switch fluorescence ratio came out at 1.01 ± 0.028.

Take AAGAGGCGGA: the switch fluorescence ratio was found to be 1 ± 0.026.

In the case of GAGATTTAGG, the switch fluorescence ratio came out at 0.969 ± 0.034.

In the case of TGTAAGGAAC, the switch fluorescence ratio was 1.26 ± 0.35.

As to CGGTTCGCGT, the switch fluorescence ratio is 0.972 ± 0.031.

Consider GCTAGAGTGC, for which the switch fluorescence ratio was 0.979 ± 0.021.

For the sequence AGCAACGTTC, the switch fluorescence ratio was 1.07 ± 0.081.

For the sequence TATACTTAAT, the switch fluorescence ratio was 1.059 ± 0.0053.

On to CATTTATGTG, for which the switch fluorescence ratio came out at 0.978 ± 0.021.

With AAGTTGTGAC, the switch fluorescence ratio was 0.997 ± 0.028.

In the case of TTTGGAGAGA, the switch fluorescence ratio came out at 1.001 ± 0.01.

As for GAGTCATTAA, the switch fluorescence ratio was 0.96 ± 0.041.

In the case of TTCAGGTGGT, the switch fluorescence ratio was determined as 1.06 ± 0.13.

Turning to AAAAAGTCTT, the switch fluorescence ratio turned out to be 1 ± 0.015.

In the case of AATAATATAG, the switch fluorescence ratio is 0.996 ± 0.031.

In the case of GTTGGGGTTG, the switch fluorescence ratio came to 1.01 ± 0.025.

Regarding CACGAAGGTG, the switch fluorescence ratio was found to be 1.16 ± 0.032.

As to CTAGAAAGTT, the switch fluorescence ratio is 0.9778 ± 0.0029.

On to ACTGATCTGA, for which the switch fluorescence ratio came out at 0.987 ± 0.04.

For AGTTTATGTG, the switch fluorescence ratio is 0.9746 ± 0.0073.

As for TATATTCTTA, the switch fluorescence ratio turned out to be 1 ± 0.065.

For the sequence ATAATAATGT, the switch fluorescence ratio stood at 1.002 ± 0.0045.

In the case of TCAAAGGGCC, the switch fluorescence ratio amounted to 1.004 ± 0.0073.

AAGGCAAATA: the switch fluorescence ratio was determined as 1.04 ± 0.037.

For GTTTACTTTT, the switch fluorescence ratio was determined as 0.986 ± 0.013.

Turning to CCAGTTTGTG, the switch fluorescence ratio is 1.018 ± 0.0037.

Turning to TTGTGATAGT, the switch fluorescence ratio worked out at 1.0025 ± 0.00064.
